The source of these data is US20210017257A1.

Assay [1] has as its target SpA in the cell wall of Staphylococcus aureus (strain ATCC #25923 and clinical isolate OOX) (Staphylococcus aureus) (UniProt P38507). Nature of the assay: flow cytometry: S. aureus strain ATCC #25923 incubated with biotinylated antibody (negative control), then streptavidin-APC.
For assay [2] the target is unchanged. Nature of the assay: flow cytometry: S. aureus clinical isolate OOX incubated with biotinylated antibody (negative control), then streptavidin-APC.
Assay [3] has the same target. Nature of the assay: flow cytometry: S. aureus clinical isolate OOX pre-incubated with human sera for 15 minutes, then biotinylated MABp1-IgG3 (isotype-matched negative control), then streptavidin-APC. A general note: In flow cytometry, cells or beads pass a laser one at a time.
The target is the same in assay [4]. Nature of the assay: flow cytometry: S. aureus strain ATCC #25923 by the legend (sheet prints 25935) pre-incubated with human sera for 15 minutes, then biotinylated MABp1-IgG3 (isotype-matched negative control), then streptavidin-APC.
Assay [5] addresses MABp1-IgG1. Nature of the assay: flow cytometry: S. aureus strain ATCC #25923 incubated with unlabeled MABp1 (negative control), then biotinylated recombinant Fcγ receptor 1, then streptavidin-APC.
Assay [6] deals with MABp1-IgG1. Nature of the assay: flow cytometry: S. aureus clinical isolate OOX incubated with unlabeled MABp1 (negative control), then biotinylated recombinant Fcγ receptor 1, then streptavidin-APC.

biotinylated recombinant Fcγ receptor 1, sequence (P12314 16-292): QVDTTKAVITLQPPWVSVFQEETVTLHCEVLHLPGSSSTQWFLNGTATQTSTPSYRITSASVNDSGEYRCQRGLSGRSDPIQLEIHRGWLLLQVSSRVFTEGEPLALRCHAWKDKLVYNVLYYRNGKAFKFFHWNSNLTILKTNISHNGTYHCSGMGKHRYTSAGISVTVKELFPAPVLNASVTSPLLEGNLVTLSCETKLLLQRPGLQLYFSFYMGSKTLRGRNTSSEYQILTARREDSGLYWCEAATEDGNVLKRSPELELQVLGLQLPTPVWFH
MABp1-IgG3 (antibody), sequence (VH): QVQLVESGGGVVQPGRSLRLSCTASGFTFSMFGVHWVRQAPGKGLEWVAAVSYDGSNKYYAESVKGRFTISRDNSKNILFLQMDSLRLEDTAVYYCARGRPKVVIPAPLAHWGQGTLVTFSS
MABp1-IgG3 (antibody), sequence (VL): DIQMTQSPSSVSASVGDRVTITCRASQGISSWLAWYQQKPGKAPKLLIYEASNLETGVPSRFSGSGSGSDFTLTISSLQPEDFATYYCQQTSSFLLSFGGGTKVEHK

As for MABp1-IgG1 (antibody), the Mean:FL4-H is 46.7 in assay [1] and 29.8 in assay [2].
With MABp1-IgG3 (antibody), the Mean:FL4-H was 19.1 in assay [3] and 10.3 in assay [4].
Turning to biotinylated recombinant Fcγ receptor 1, the Mean:FL4-H with MABp1-IgG1 [5] came out at 19.8; with MABp1-IgG1 [6], 18.6.
